The values below come from patent US20240092924A1.

In this test the target is wild-type human sodium taurocholate cotransporting polypeptide (human NTCP) (human) (UniProt Q14973). Briefly: cell-based or functional assay.
wild-type human sodium taurocholate cotransporting polypeptide (human NTCP) (human), sequence (Q14973 whole entry): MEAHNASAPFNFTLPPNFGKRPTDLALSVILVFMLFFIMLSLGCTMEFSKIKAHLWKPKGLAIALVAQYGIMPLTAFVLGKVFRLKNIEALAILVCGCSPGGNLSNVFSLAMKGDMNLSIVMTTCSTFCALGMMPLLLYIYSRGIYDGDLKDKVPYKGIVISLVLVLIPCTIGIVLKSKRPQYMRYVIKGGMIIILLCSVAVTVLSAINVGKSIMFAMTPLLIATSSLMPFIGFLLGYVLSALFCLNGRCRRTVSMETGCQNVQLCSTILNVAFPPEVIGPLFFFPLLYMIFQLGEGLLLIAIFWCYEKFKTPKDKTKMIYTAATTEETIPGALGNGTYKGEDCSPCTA

In turn, preS1 peptide returned a [3H]-taurocholic acid uptake by HepG2-human NTCP cells, at 1000 nM (fraction of uptake remaining) of 0.05; an inhibition of [3H]-taurocholic acid uptake by human NTCP-expressing HepG2, at 100 nM of 60%; an inhibition of [3H]-taurocholic acid uptake by human NTCP-expressing HepG2, at 1000 nM of 96%; a suppression of bile acid uptake into a hepatocyte cell line, at 1000 nM (FIG. 3 legend) of less than 90%.
